This note sets out measurements from patent US20150110792A1 (Biogen, published 2015).

The target in experiment [1] is T1, cynomolgus monkey TIM-1-Fc (cynomolgus monkey TIM-1 extracellular domain expressed as an Fc fusion protein) (Cynomolgus monkey (Macaca fascicularis)).
T1 construct: also called cyno.TIM1; not shown: Fc part
T1 chain: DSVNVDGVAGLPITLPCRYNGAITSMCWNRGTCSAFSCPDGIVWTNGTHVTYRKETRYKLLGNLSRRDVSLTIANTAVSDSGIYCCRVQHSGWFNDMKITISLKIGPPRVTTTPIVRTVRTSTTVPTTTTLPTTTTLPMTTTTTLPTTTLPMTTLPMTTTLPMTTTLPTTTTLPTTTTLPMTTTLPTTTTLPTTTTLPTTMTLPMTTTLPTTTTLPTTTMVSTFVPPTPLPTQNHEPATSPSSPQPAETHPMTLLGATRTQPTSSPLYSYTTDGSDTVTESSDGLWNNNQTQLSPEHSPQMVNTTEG
The experiment is described as follows: ELISA-1, plates coated with 2 µg/ml cynomolgus monkey TIM-1-Fc. As to the method: (§1) In the second assay, an ELISA format was used to measure the relative affinity of three anti-TIM-1 monoclonal antibodies for human TIM-1. Titration curves were derived for each antibody and EC50 values were calculated from the curves. Briefly, ELISA plates (Corning Costar) were coated with 0.2 μg/ml human TIM-1-Fc overnight at 4° C. and then blocked for 1 hour at 22° C. with PBS/0.5% casein. Plates were thoroughly washed with PBS/0.1% Tween-20. Anti-human TIM-1 monoclonal antibodies were added across a range of concentrations starting at 10 μg/ml and using 1:3 dilutions, all in PBS/0.5% casein, and allowed to incubate for 1 hour at 22° C. The plates were washed again, and then a 1:1000 dilution of HRP-conjugated goat anti-mouse IgG (H+L; Jackson Immunoresearch Laboratories) was added in PBS/0.5% casein for an additional hour at 22° C. After a final wash, the plates were developed using substrate solution mix (R&D Systems) and stopped using 2N H2SO4. Plates were read at 450 nm using a microplate reader and analyzed using SoftMax Pro (Molecular Devices). Relative EC50 values were determined from the binding curves.
(§2) The cynomolgus monkey TIM-1 extracellular domain was expressed as an Fc fusion protein, purified, and used in the ELISA format described above for binding monoclonal antibodies to the human TIM-1 protein. […]

For experiment [2], the target named is T2, Cynomolgus monkey TIM-1 expressed on transfected 293E cells (Cynomolgus monkey (Macaca fascicularis), UniProt O46598 25-478 (Chlorocebus aethiops entry)).
T2 construct: Full-length cDNA (pEAG2184) transfected into 293E cells; also called Cynomolgus TIM-1
T2 chain: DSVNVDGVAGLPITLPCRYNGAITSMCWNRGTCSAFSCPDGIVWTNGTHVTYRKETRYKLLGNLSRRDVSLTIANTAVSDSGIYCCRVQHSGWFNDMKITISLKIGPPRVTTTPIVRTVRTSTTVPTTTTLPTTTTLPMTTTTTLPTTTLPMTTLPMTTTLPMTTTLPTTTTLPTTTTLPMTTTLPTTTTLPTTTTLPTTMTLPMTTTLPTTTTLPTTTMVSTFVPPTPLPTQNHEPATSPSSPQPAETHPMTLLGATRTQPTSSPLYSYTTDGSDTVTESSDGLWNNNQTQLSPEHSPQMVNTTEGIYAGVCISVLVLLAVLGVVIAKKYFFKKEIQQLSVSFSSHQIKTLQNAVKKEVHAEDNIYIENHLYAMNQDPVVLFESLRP
Put plainly: flow cytometry on 293E cells transfected with Cynomolgus monkey TIM-1 cDNA, gated on EGFP-positive cells, PE anti-mouse IgG. As to the method:
In a second series of experiments, 293E cells transfected with human TIM-1 cDNA or Cynomolgus monkey TIM-1 cDNA were analyzed for anti-human TIM-1 monoclonal antibody binding by flow cytometry. The full-length human and cynomolgus monkey TIM1 cDNAs were engineered to remove extraneous 5′ and 3′ UTRs and to add an identical optimized Kozak sequence, then were subcloned into pNE001, a fully sequence-confirmed pUC-based EBV expression vector derived from the Invitrogen expression vector pCEP4, in which heterologous gene expression is controlled by a CMV-IE promoter and an SV40 polyadenylation signal, but lacking the EBNA gene and the hygromycin resistance gene. TIM-1 expression vectors (human: pEAG2182, and cynomolgus monkey: pEAG2184) were co-transfected into 293E cells at a 1:1 molar ratio with an EBV expression vector carrying an EGFP reporter (pEAG1458). Cells were transfected using Qiagen's Effectene reagent, following the manufacturer's recommended protocol. Cells were used in FACS at 2 days post-transfection, staining with a dilution titration series of murine anti-human TIM1 monoclonal antibodies, (detected with PE-conjugated goat anti-mouse IgG secondary antibody) and gating on green EGFP-positive living cells. […]

Experiment [3] addresses T3, human TIM-1-Fc (extracellular domain of human TIM-1, residues 1-290, attached to the Fc portion of human IgG1) (human, UniProt Q96D42 21-290).
T3 construct: also called TIM-1-Ig; human TIM1-Ig; not shown: Fc portion of human IgG1
T3 sequence: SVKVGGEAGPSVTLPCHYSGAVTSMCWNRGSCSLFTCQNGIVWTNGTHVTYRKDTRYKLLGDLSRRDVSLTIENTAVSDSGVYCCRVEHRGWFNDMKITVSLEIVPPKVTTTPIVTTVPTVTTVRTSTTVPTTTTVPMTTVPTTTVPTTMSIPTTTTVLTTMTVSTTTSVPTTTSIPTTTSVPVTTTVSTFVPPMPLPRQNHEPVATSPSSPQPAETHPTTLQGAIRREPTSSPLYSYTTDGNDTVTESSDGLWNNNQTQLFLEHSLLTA
The experiment is described as follows: ELISA-2, plates coated with 0.2 µg/ml human TIM-1-Fc. As to the method: as §1, §2

Experiment [4] concerns the target T3, human TIM-1-Fc (extracellular domain of …). Put plainly: ELISA-1, plates coated with 2 µg/ml human TIM-1-Fc. As to the method:
as §1, with “Briefly, ELISA plates (Corning Costar) were coated with 0.2 μg/ml human TIM-1-Fc overnight at 4° C. and then blocked for 1 hour at 22° C. with PBS/0.5% casein.” left out
The cynomolgus monkey TIM-1 extracellular domain was expressed as an Fc fusion protein, purified, and used in the ELISA format described above for binding monoclonal antibodies to the human TIM-1 protein. […] The resulting titration curves were used to derive a relative EC50 for anti-human TIM-1 monoclonal antibody binding to human TIM-1 and cynomolgus monkey TIM-1 (Table 2, ELISA-2).

The target is the same in experiment [5]. The experiment is described as follows: ELISA, plates coated with human TIM-1-Fc. As to the method:
as §1

In experiment [6] the target is T1, cynomolgus monkey TIM-1-Fc (cynomolgus …). Put plainly: SPR (Biacore), cynomolgus monkey TIM-1-Fc.
For experiment [7], the target named is T4, human TIM-1 expressed on cells (human, UniProt Q96D42 21-364).
T4 construct: Full-length human TIM-1 on transfected (HEK 293T, 293E, JUN2 Jurkat) or constitutively expressing (769-P) cells; also called HAVCR1; KIM-1
T4 sequence: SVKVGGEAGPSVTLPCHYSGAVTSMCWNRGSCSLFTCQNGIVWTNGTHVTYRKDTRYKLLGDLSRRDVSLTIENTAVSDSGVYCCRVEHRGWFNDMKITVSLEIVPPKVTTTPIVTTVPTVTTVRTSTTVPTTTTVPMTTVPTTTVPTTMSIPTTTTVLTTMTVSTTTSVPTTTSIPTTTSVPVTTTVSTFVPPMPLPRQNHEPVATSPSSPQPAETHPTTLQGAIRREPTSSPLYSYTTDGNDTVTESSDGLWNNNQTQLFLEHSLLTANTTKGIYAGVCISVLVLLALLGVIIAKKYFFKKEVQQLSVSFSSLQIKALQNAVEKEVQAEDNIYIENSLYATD
The experiment is described as follows: flow cytometry on 769-P cells (constitutively expressing human TIM-1), PE anti-mouse IgG, MFI against µg/ml of mAb. As to the method:
(§3) Three assays were used to assess the affinity of ARD5 for human TIM-1. In the first assay, ARD5 binding to cells expressing TIM-1 was measured by Flow Cytometry. Two cell lines were used. JUN2 cells are a stable human Jurkat TIM-1-expressing cell line (described in Binne et al. (2007) J. Immunol. 178: 4342-50). The human kidney cell line 769-P also constitutively expresses TIM-1. JUN2 cells and 769-P cells were cultured in RPMI/10% FBS. JUN2 cells grow in suspension; 769-P cells are adherent and were gently removed with Accutase (Invitrogen). Cells were resuspended in PBS/5% BSA and incubated with monoclonal antibodies for 1 hour on ice. Following several washes with PBS/5% BSA, the cells were resuspended in the same buffer containing PE-coupled donkey anti-mouse IgG secondary antibody (Jackson Immunoresearch). Following an additional wash in PBS/5% BSA and a final wash in PBS, cell were resuspended in 100 ul PBS and fixed in an equal volume of 2% paraformaldehyde. Monoclonal antibody binding was analyzed using a flow cytometer (FACScan).

Experiment [8] has as its target T1, cynomolgus monkey TIM-1-Fc (cynomolgus …). The experiment is described as follows: ELISA-2, plates coated with 0.2 µg/ml cynomolgus monkey TIM-1-Fc. As to the method: as §1, §2
The target of experiment [9] is T4, human TIM-1 expressed on cells. The experiment is described as follows: flow cytometry on JUN2 cells (Jurkat stably expressing human TIM-1), PE anti-mouse IgG, MFI against µg/ml of mAb. As to the method:
as §3

Experiment [10] deals with T3, human TIM-1-Fc (extracellular domain of …). Put plainly: SPR (Biacore), human TIM-1-Fc.
For experiment [11] the target is unchanged. The experiment is described as follows: SPR (Biacore), monovalent binding to immobilized human TIM-1.

Some results are limits rather than exact numbers.

B1: monoclonal antibody ARD5 (antibody, mouse IgG1, kappa, V domains shown)
VH: QVQLQQSGAELVRPGTSVKVSCKASGYVFTNYWIEWIKQRPGQGLEWIGVMNPGSGETTYNEKFKGKATLTADKSSSTAYMQLSSLTSVDSAVYFCARDHDRDYYAMDYWGQGTSVTVSS
VL: EIQMTQSPSSMSASLGDTITITCQATQDIFKNLNWYQQKPGKPPSLLIYYATELAEGVPSRFSGSGSGSDYSLTISNLESEDFAAYYCLQFFEFPFTFGSGTKLEMKR
notes: Murine IgG1/kappa hybridoma antibody (ATCC PTA-12195); also called ARD5.12; muARD5
B1: the EC50 in [1] amounted to 0.002 µg/mL; in [3] it was 0.043 µg/mL; in experiment [4], 0.001 µg/mL; in [5], 0.00078 µg/mL; in experiment [8], 0.013 µg/mL. Besides, in [2], the binding result is reported as “binds”. In addition, in experiment [5], the “relative EC50 against A6G2 and A3H1 (percent greater)” value was found to be 80.5%. For the same molecule, the Kd is less than 50 nM in experiment [6] and no more than 0.6 nM in [10]. Also, the 50% effective concentration (EC50 (read off the curve)) is roughly 0.2 µg/mL in experiment [7] and roughly 0.1 µg/mL in experiment [9].

B2: FAb fragment of ARD5 (Fab, V domains shown)
VH: B1 VH
VL: B1 VL
notes: Fab purified from the ARD5 monoclonal antibody; also called FAb of ARD5; not shown: murine IgG1 CH1 and part of the hinge
On to B2, for which the affinity in experiment [11], expressed as Kd, was 3 nM.
